Test results reported in the supplement of paper PMC12764529.
± gives the half width of the 95% confidence interval.

Assay: folding stability dG unfold (combined trypsin and chymotrypsin); higher = more stable
Outline: (§1)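 Bayesian fitting of sequencing counts gave K50 for each design. Unfolding free energy followed by setting this against a sequence-predicted unfolded-state K50 and a shared folded-state K50, either per protease or with trypsin and chymotrypsin combined. The designs, under 80 residues and lacking cysteine, were digested in a PA-tagged cDNA display format at 11 threefold-diluted protease concentrations and without protease, and only those with AlphaFold2 dimer inter-PAE above 15 were kept.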

Sequence	folding stability dG unfold [kcal/mol]
SAGGKTVVIELDGARIEFNEDDGTITVWMPREELEALKAALPPGAEIVEVRERPDGWVQVTIRITPPSAGGS [r8_415_TrROS_Hall]	3.89 ± 0.1
SAGGSAGGGHMPVTKTVQLPGRTVTLTYYPEKGTVKITFPEDGTEKTVPISPSETIEDVIKKLSSAGGSAGG [r6_166_JUSTAS]	2.6 ± 0.061
SAGGSPATVLSSSTLSTTPLPDGTTLTTSETVTLLPNGEPVVTTTTTTTAPDGSVTTTTTTTPLDAASAGGS [r16_261_JUSTAS]	0.885 ± 0.047
SAGGAEEARKAGRPVLLTVTVTAPGSGKVSTLPLLVPADRPVDVEALVAALFPADWAVTVSVSPVGGSAGGS [r8_127_JUSTAS]	1.27 ± 0.11
SAGGSAMTAEELKGMKVKITLKNGKKIEAKIKKVEVINGEIYIEIDGKKIKLKKNEKYKIEIVEKKSAGGSA [r15_355_TrROS_Hall]	2.06 ± 0.16
SAGMGATLVSESEEEIDSSGVRKLTYRSPGSLLVETLYPDGTVPVYVIDPSTGKVVEERVFHVPPDVPLSAG [r14_676_JUSTAS]	0.204 ± 0.13
SAGGGMTPTITVTVHYPGETVTITLSSIEEALEYLKKQGLPINPTHSDPNTLVIEFPDGRTVTITLSSAGGS [r8_365_JUSTAS]	3.98 ± 0.15
SAGGSAGGSAGGIKLENPNGFEVYKSPDSMVEIEFVNPNGKPMRYIIQVDEPGEIKPYPVSAGGSAGGSAGG [r7_423_TrROS]	0.0566 ± 0.2
SAGGSAGGSKTKTIEIEVDGKKVRITVNEDGSVTIEVYYPGKPVKTIEIPGMSIEEILKALLESAGGSAGGS [r20_8_TrROS_Hall]	2.73 ± 0.098
SAGGSAKEWVWVISIKYRYPNGEPLAPIPIMIPPDDPEIDIDEIADEIARKHGLDEIEVNIHPIPVSAGGSA [r15_333_TrROS]	1.9 ± 0.14
SAGGSAGGEVKIEVNKEKGYLLITVPKEEAEEIAKALKEKFGIKEVKIEVDEETDEVHILVKLESAGGSAGG [r6_661_TrROS_Hall]	2.59 ± 0.27
SMLEEVLERIEAMPPGSVVKVTLTFPDGTKRTETLKLSAEEVKEKLEKIKKENPDIKIEVKVEVYSTEEESA [r9_37_JUSTAS]	4.39 ± 0.42
SAGGSAGGSAGGLWLTFNFRLTFFNPDGQAMEIEIPIEIRIPPPPVTVPDPDGEEYKYDSAGGSAGGSAGGS [r10_330_TrROS]	2.87 ± 0.18
SAMKLPKDVEIKEIKFDPEKTVTIKIKVKKYDFFIYDPETGKVIVIKPGEEKEITLPANIPLLIFAIKPSAG [r14_385_TrMRF]	2.16 ± 0.23
SAGMKPLSDPEAQELAKEVAEKGYLVYTLKYPDGTVITVVSKSEEEVEALLEKSPYPIKEIVIIPPEKPSAG [r5_481_JUSTAS]	1.48 ± 0.12
SPLKEGDTLTFTLPVPDLPNVRIEIDLHFYKDPNTDRYRVLANITVYYGDKPVTFSIEMPVDTFLDLLKSSA [r9_71_TrMRF]	2.87 ± 0.18

Assay: folding stability dG unfold from trypsin proteolysis; higher = more stable
Outline: as §1

Sequence	folding stability dG unfold [kcal/mol]
SAGGSAMKKTITVTLSYPETGETRTVTVELTDIPESDPEKWKALAEEVAEALAKERGAEVLGIEISSAGGSA [r15_1013_JUSTAS]	4.9 ± 0.14
SAGGGAPNKPVGKETFTVKIGDKWVKVEVTHYATSGTAEVKVTGPNGGPLGTFTVKIDPEKGGVYFGSAGGS [r16_798_TrMRF]	0.728 ± 0.056
SAGGSAGGSNLEEFLAKLPPDVEVVVDPETGTVLVRFPKTGTVAVFRVDAAEGKVELVEVKPVSAGGSAGGS [r12_82_TrMRF]	3.88 ± 0.11
SAGGGPSMTITVTVSSSELTSGSGPGPLTPEDVAKRLEAELPPGNVTVTVVEVDPATGEVTVRIEVESAGGS [r16_284_JUSTAS]	1.17 ± 0.064
SAMKKGEKVKVTLEIEVNGKKYKIELVYDKENNTYTIKIKNEKTGETKTIEVKAKTKEEALEAAKKLLESAG [r14_65_TrROS_Hall]	1.96 ± 0.076
SAGLDEEAYRNGLTVYLTSRLPGPDVLRPQWFDVTPEGDGFTYNVALPDGVPVNLEVLSRKVLSPEELLSAG [r14_427_JUSTAS]	-0.489 ± 0.51
SAGGSAGGSAGVPSLEEVLAELEANPNSDAVVELPDGTRVRIRVERLPGGELRVEREEVLSAGGSAGGSAGG [r11_300_JUSTAS]	1.21 ± 0.029
SAGSAAIKALLEKHPKPEVIEVTRLPGSGTLVIKVDDEDHVVPTPPGGFTETLTVDENGNVLSVEPHPASAG [r5_329_JUSTAS]	1.79 ± 0.11
SAKPVAEGPIRIPNGFEIEITQIKPDKENGEIVIPIEIEMWRPERDPEDPNQPKWEPQEMNIAFTIPLDSAG [r14_888_TrROS]	1.3 ± 0.14
SAGGSAGGSAGGSPEFKIVSVEYDPETGLVTLEIEREDGSTLRFVFDKDGKLVRVEELPSAGGSAGGSAGGS [r4_259_TrROS_Hall]	3.31 ± 0.22
SAGEKEYVNLPLVVKLPPGVPASLILDAAVKHGAKEVTIVEEPTPDGGMVLHINLVLPKEALPKLLESLSAG [r5_376_TrMRF]	4.39 ± 0.21
SAGGRRPVTAEEAADRLMKELGIPGLKNIKDVTMEYEVYDPDGKPWSRVDITIKIKMPPEQRDRLKKLSAGG [r13_552_TrROS]	0.607 ± 0.12
SAGGSAGGSPIKIEFPPGIKEIEPIENDPNKTIMFRFPDYLVRIRINPKNGKIDIEIVPPGDMSAGGSAGGS [r12_858_TrROS]	1.94 ± 0.028
SAGGSAGGSAGMEIEEEDGKLRLRLEAEFEVTVTTRNADGSTTETTARVRVELTFELPEESAGGSAGGSAGG [r17_103_TrROS_Hall]	3.67 ± 0.29
SAGGIVVKVADGSYVRIVVYDPNNPVPRIETFPGGGVDDVIAAIAASPSFPNTVVYVERFDDGKPYPASAGG [r13_914_TrMRF]	0.871 ± 0.043
SAGGKTVVIELDGARIEFNEDDGTITVWMPREELEALKAALPPGAEIVEVRERPDGWVQVTIRITPPSAGGS [r8_415_TrROS_Hall]	3.1 ± 0.14

Sequence	folding stability dG unfold [kcal/mol]
SAGGSAGGGHMPVTKTVQLPGRTVTLTYYPEKGTVKITFPEDGTEKTVPISPSETIEDVIKKLSSAGGSAGG [r6_166_JUSTAS]	2.32 ± 0.069
SAGGSPATVLSSSTLSTTPLPDGTTLTTSETVTLLPNGEPVVTTTTTTTAPDGSVTTTTTTTPLDAASAGGS [r16_261_JUSTAS]	1.05 ± 0.043
SAGGAEEARKAGRPVLLTVTVTAPGSGKVSTLPLLVPADRPVDVEALVAALFPADWAVTVSVSPVGGSAGGS [r8_127_JUSTAS]	1.32 ± 0.028
SAGGSAMTAEELKGMKVKITLKNGKKIEAKIKKVEVINGEIYIEIDGKKIKLKKNEKYKIEIVEKKSAGGSA [r15_355_TrROS_Hall]	1.84 ± 0.093
SAGMGATLVSESEEEIDSSGVRKLTYRSPGSLLVETLYPDGTVPVYVIDPSTGKVVEERVFHVPPDVPLSAG [r14_676_JUSTAS]	0.179 ± 0.13
SAGGGMTPTITVTVHYPGETVTITLSSIEEALEYLKKQGLPINPTHSDPNTLVIEFPDGRTVTITLSSAGGS [r8_365_JUSTAS]	3.67 ± 0.15
SAGGSAGGSAGGIKLENPNGFEVYKSPDSMVEIEFVNPNGKPMRYIIQVDEPGEIKPYPVSAGGSAGGSAGG [r7_423_TrROS]	0.0628 ± 0.13
SAGGSAGGSKTKTIEIEVDGKKVRITVNEDGSVTIEVYYPGKPVKTIEIPGMSIEEILKALLESAGGSAGGS [r20_8_TrROS_Hall]	3.08 ± 0.071
SAGGSAKEWVWVISIKYRYPNGEPLAPIPIMIPPDDPEIDIDEIADEIARKHGLDEIEVNIHPIPVSAGGSA [r15_333_TrROS]	1.59 ± 0.052
SAGGSAGGEVKIEVNKEKGYLLITVPKEEAEEIAKALKEKFGIKEVKIEVDEETDEVHILVKLESAGGSAGG [r6_661_TrROS_Hall]	2.5 ± 0.14
SMLEEVLERIEAMPPGSVVKVTLTFPDGTKRTETLKLSAEEVKEKLEKIKKENPDIKIEVKVEVYSTEEESA [r9_37_JUSTAS]	3.33 ± 0.39
SAGGSAGGSAGGLWLTFNFRLTFFNPDGQAMEIEIPIEIRIPPPPVTVPDPDGEEYKYDSAGGSAGGSAGGS [r10_330_TrROS]	2.39 ± 0.07
SAMKLPKDVEIKEIKFDPEKTVTIKIKVKKYDFFIYDPETGKVIVIKPGEEKEITLPANIPLLIFAIKPSAG [r14_385_TrMRF]	2.16 ± 0.092
SAGMKPLSDPEAQELAKEVAEKGYLVYTLKYPDGTVITVVSKSEEEVEALLEKSPYPIKEIVIIPPEKPSAG [r5_481_JUSTAS]	1.16 ± 0.082
SPLKEGDTLTFTLPVPDLPNVRIEIDLHFYKDPNTDRYRVLANITVYYGDKPVTFSIEMPVDTFLDLLKSSA [r9_71_TrMRF]	2.99 ± 0.24
